In publication PMC9130567:
pKd: −log10 of the molar value.

Biological target: Human properdin (factor P) (human) (UniProt P27918)
Assay: SPR; FP immobilised by amine coupling to 79.55 RU; FXI or FXIa injected by OneStep gradient, maximum 50 nM, 30 uL/min, dissociation 300 s; Pall/ForteBio Pioneer; run in triplicate

UniProt P27918, sequence (P27918 28-469): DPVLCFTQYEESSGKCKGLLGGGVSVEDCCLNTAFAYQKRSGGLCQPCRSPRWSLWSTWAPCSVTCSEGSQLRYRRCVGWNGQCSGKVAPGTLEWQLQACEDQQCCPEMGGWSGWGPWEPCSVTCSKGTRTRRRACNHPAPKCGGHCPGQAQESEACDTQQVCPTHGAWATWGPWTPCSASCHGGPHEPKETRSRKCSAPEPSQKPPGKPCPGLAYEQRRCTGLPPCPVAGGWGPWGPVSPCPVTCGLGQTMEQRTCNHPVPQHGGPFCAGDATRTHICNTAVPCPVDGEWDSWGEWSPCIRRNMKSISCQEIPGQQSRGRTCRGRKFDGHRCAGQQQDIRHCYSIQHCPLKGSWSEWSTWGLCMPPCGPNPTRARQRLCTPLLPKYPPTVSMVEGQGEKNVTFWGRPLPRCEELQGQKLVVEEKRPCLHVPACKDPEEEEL

pKd | Substance
9.46 | Human activated coagulation factor XI (preactivated by FXIIa) (enzyme)
7.79 | Human coagulation factor XI zymogen (natural protein)
